Data published in paper PMC9904277 (2023).

Target: MCL-1 (Homo sapiens, UniProt Q07820)
Assay: competition fluorescence anisotropy

Chain of MCL-1 (Q07820 whole entry): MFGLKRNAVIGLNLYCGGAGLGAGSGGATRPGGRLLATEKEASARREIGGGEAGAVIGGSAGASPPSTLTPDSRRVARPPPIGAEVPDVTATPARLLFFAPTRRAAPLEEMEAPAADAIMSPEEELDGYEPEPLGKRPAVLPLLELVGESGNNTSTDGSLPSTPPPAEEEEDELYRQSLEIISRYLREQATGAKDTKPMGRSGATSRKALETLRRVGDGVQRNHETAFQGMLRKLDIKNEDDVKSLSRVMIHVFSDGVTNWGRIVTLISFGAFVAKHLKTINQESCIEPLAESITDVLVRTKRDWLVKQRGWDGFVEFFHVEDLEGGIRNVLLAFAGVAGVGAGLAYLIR

Binder	IC50
SAAQLTAARLKALGDELHQRTMW [HRK-wt 28-50]	2700 nM
NLWAAQRYGRELRRMSDEFVDSFKK [BAD-wt BH3]	> 50000 nM
